Test results as given in the nanobody polyreactivity screen of Harvey et al. (2022).

Test: yeast display, Sf9 membrane polyspecificity reagent, FACS + sequencing; frameworks hold sequencing errors
Procedure, shortened: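 After 36–48 hours of galactose induction, yeast (Saccharomyces cerevisiae BJ5465) displaying a synthetic nanobody library were stained at 4 °C for 1 hour with 10% biotinylated, detergent-solubilized Sf9 membrane reagent. Streptavidin microbeads enriched the stained cells before FACS sorting into low and high (top ~1%) gates on anti-HA and streptavidin fluorescence. Each clone's polyreactivity label reflects its gate of origin.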

Row | Sequence | polyreactivity (PSR sort gate)
1 | QVQLVESGGGLVQAGGSLRLSCAASGYIIFTNAMGWYRQAPGKERQLVAAISTIDGSTYYADSVKGRFTISRDNAKNTVYLQMNSLKPEDTAVYYCATDTPFISSLAYDYWGQGTQVTVSS | low polyreactivity
2 | QVQLVESGGGLVQAGGSLRLSCAASGRIFDHNAMGWYRQAPGKERELVAAITWSGGRTYYADSVKGRFTISRDNAKNTVYLQMNSLKPEDTAVYYCNAPVSRRGGNYWGLGTQVTVSS | high polyreactivity
3 | QVQLVESGGGLVQAGGSLRLSCAASGRTFGKNAMGWYRQAPGKEREFVAAITSRGGSTYYADSVKGRFTISRDNAKNTVYLQMNSLKPEDTAVYYCAADYYQWSTFLGVYEYDYWGQGTQVTVSS | low polyreactivity
4 | QVQLVESGGGLVQAGGSLRLSCAASGRIFWGYAMGWYRQAPGKERELVAGITTGGSTKYADSVKGRFTISRDNAKNTVYLQMNSLKPEDTAVYYCAATGKWYHFYHYGYWGQGTQVTVSS | low polyreactivity
5 | QVQLVESGGGLVQEGGSLRLSCAASGSIFQYYALGWYRPAPGKERELVAAISSGGRTNYADSVKGRFTISRDNAKNSVYLQMNSLKPEDTAVYYCAAARYYYQVYRWEYDYWGQGTQVTVSS | high polyreactivity
6 | QVQLVESGGGLVQAGGSLRLSCAASGLIFRGYVMGWYRQAPGKERELVAAISRRGVNTYYADSVKGRFTISRDNAKNTFYLQMNSLKPEDTAVYYCNAYVHTQGGDYWGQGTQVTVSS | high polyreactivity
7 | QVQLVESGGGLVQAGGSLRLICAASGSTFGFNAMGWYRQAPGKERELVAAITFSGGTTYYADSVKGRFTISRDNAKNTVYVQMNSLKPDDTAVYYCNAEWWYHYTGPFAPWGEDYWGQGTQVTVSS | low polyreactivity
8 | QVQLVESGGGLVQAGGSLRLSCAASGRIFLRYAMGWYRQAPGKERELVAVITWSGGSTNYADSVKGRFTISRDNAKNTVYLQMNSLKREDTAVYYCAVDNTGRSWPYDYWGQGTQVTVSS | low polyreactivity
9 | QVQLVESGGGLVQAGGSLRLSCAASGFIFPGYAMGWYRQAPGKERELVAAITRSGGSTYYADSVKGRFTISRDNAKNTVYLQMNSLKPEDTAVYYCAAYVSGYRWGYDYWGQGTQVTVSS | high polyreactivity
10 | QVRLVESGGGLVQAGCSLRLSCAASGSTFWSYAMGWYRQAPGKERELVAAISWSGDSTYYADSVKGRFTISRDNAKNTVYLQMNSLKPEDSAVYYCAADYTGSFYTYDYWGQGTQVTVSS | low polyreactivity
11 | QVQLVESGGGLVQAGGSLRLSCAASGLIFHKNAMGWYRQAPGKERELVATITSGGNTNYADSVKGRFTISRDNAKNTVYLQMNSLKPEDTAVYYCAKDTHLLNEHSGTSREYDYWGQGTQVTVSS | low polyreactivity
12 | QGQLVESGGGLVQAGGSLRLSCAASGSTFSDYAKGWYRQAPGKERELVAGITGGGGTYYADSVKGRFTISRDNAKNTVYLQMNSLKPEDTAVYYCAAGRRHGFGYWGQGTQVTVSS | low polyreactivity
13 | QVQLVESGGGLVQAGGSLRLSCAASGRTFTINAMGWYRQAPGKERELVATIRSSGGSTSYADSVKGRFTISRDNAKNTVYLQMNSLKPEDTAVYYCAADGWGRYDYWGQGTQVTVSS | low polyreactivity
14 | QVQLVESGGGLVQAGGSLRLSCAASGSTFYYYAMGWYRQAPGKERELVAVIRDSDGSTDYADSVKGRFTISRDKAKNTVYLQMNSLKPEDTAVYYCAATNVRGVYYWGQGTQVTVSS | high polyreactivity
15 | QVQLVESGGGLVQAGGSLRLSCAASGRIFTSNTMGWNRQAPGKERELGAAITSSGGYMYYADSVKGRFTISRDNAKNTGYLQMNSLKPEDTAVYYCAADTIGYHYWYDYWGQGTQVTVSS | low polyreactivity
16 | QVQLVESGGGLVQAGGSLRLSCAASGSIFDWYAIGWYRQAPGKEGELVAAISSGDSTYYADSVKGRFTISRDNAKNTVVLQMNSLKAEETSVSDCAAVTKLSGIRYNYWGQGSQVTVSS | low polyreactivity
17 | QVQLVESGGALVQAGGSLRLSCAASGRIFGVNTMGWYRQAPGKERELVDAISAGGGSTYYADSVKGRFTISRDLAKNTVYLQMNSLKPEDTAVYYCNVLTLNYRSTSRRKEYDYWGQGTQVTVSS | high polyreactivity
18 | QVQHVESGGGLVQAGGSLRLSCAASGSIFAHYTMGWYRQAPGKERELVAVISRSGARTYYADSVKGRFTISRDNAKNTVYLQMNSLKPEDTAVYYCAADRNLEEDYWGLGTQVTVSS | low polyreactivity
19 | QVHLVESGVGLVQAGVSHRLSCAASGSTYRGYAMGWYRQAPGKERELVAPITYISDSTYYADSVKGRFTISRDNAKNTVYLQMNSLKPEDSAVYYCNDYYDGDWRYTSQETGDNWGQGTQVTVSS | low polyreactivity
20 | QVQLEESGGGLVQAGDSLRLSCDASGSTFPGYAMGWYRPAPGKERELVAAIYKRGGSTRYADSVKGRFTISRDNAKNTVYLQMNSLKPEDTAVYYCAASYSYSGSGGGYWGQGTQVTVSS | high polyreactivity
21 | QVQLVESGGGLVQAGGSLRLSCAASGIIFVAYAMGWYRPAPGKERELVAAITKSGVRTYYADSVKGRFTISRGNAKNTVYLQMNSLKPEDTAVYYCAADRGVGVYYWGQGTQATVSS | high polyreactivity
22 | QVQLVASGGGLVQARGSLRLSCAASGRTFTYYAMGWYRQAPGKESELVAAISDSGGSTYYADSVKGRFTISRDNAKNTVYVQMNSLKPEDTAVYYCAAYRYVGPWTDVGSPDYDDWGQGTQVTVSS | low polyreactivity

Row | Sequence | polyreactivity (PSR sort gate)
23 | QVQLVESGGGLVQAGGSLRLSCAASGITFGHYAMGWYRQAPGKERQLVAGINWSGDGRYYADSVKGRFTISRDNAKNTVYLQMNSLKPEDTAVYYCDAETFYDYGGYDYWGQGTQVTVSS | low polyreactivity
24 | QVQLVESGGGLVQAGGSLRLSCAASGSIFSKYAMGWYRQAPGKERELVAAISISDGNTYYADSVKGRFTISRDNAKNTVYLQMNSLKPEDTAVYYCATVGSEDGDPGFDYWGQGTQVTVSS | low polyreactivity
25 | QVQLVESGGGLVQAGGSLRLSCAASGSIFRGYAMGWYRQAPGKERELVAVITSGGSTDYADSVKGRFTISRDNAKNTVYLQMNSLKPEDTAVYYCAALPGGYYDRGEYDYWGQGTQVTVSS | low polyreactivity
26 | QVQLVESGGGLVQAGGSLRLSCAASGLIFVDYTMGWYRQAPGKERELVAGISNSGNTNYADSVKGRFTISRDNAKNTVYLQMNSLKPEDTAVYYCAAVYTWYPWYPYDYWGQGTQVTVSS | low polyreactivity
27 | QVQLVESGGGLVQAGGSLRLSCAASGLIFEEYAMGWYRQAPGKERELVAGIDSSGSTNYADSVKGRFTISRDNAKNTVYLQMNSLKPEDTAVYYCTARGYYPRWYYVFRGNYWGQGTQVTVSS | low polyreactivity
28 | QVQLVESGGGLVQAGGSLRLSCAASGSTFSSYVMGWYRQAPGKERELVAGITRGGRTYYADSVKGRFTISRDNAKNTVYLQMNSLKPEDTAVYYCNARDGVTTEFDYWGQGTQVTVSS | low polyreactivity
29 | QVLLQESGGGLVEAGGSLRLSCAASGTISTDIRMGWYRLAPGKEREFVASIDGGSTTYYADSVKGRFTISRDNAKNTVYLQMNSLKPQDTAMYYCAAGEATEFYLYYWGQGTQVTVSS | low polyreactivity
30 | QVQLVESGGGLVQAGGSLRLSCAASGRTFTRYAMGWYRQAPGKEREFVAAITTRGGSTYYADSVKGRFTISRDNAKNTVYLQMNSLKPEDTAVYYCAADYYYVQVLYDLGLDYWGQGTQVTVSS | high polyreactivity
31 | QVQLVESGGGVVQAGGSLRLSCAATGSIFISYDTGLYRQAPGKESELVAAITWSGDSTYYADSVKARFTISRDNAKNSVYLQMNSLKPEDTAVYYCAADWYFRNQRGYYWGQGTQVTVSS | low polyreactivity
32 | QVQLVESGGGLVQAGGSLRLRCAASGTTFRLYAMGWYRQAPGKERELVAAISWIGGRTYYADSVKGRFTISRDNAKNTVYLQMNSLKPEDTAVYYCAATCAYRVARGYDYWGQGTQVTVSS | high polyreactivity
33 | QVQLVESGGGLVQAGGSLRLSCAASGFTFRNYAMGWYRQAPGKERELVAAISQSGGITYYADTVKGRFTISRDNAKNTVYLQMYSLKPEDTAVYYCAAERFPRSSKGYFRTYDYWGQGTQVTVSS | high polyreactivity
34 | QVQLVESGGGLVQAGGSLRLSCAASGFNFDGNAMGWYRQAPGKERELVAAISSSSGRTRYADSVTGRFSISRDNAKNTVYLQMNSLKPEDTAVYYCAARRQSTRPGFYYWGQGTQVTVSS | high polyreactivity
35 | QVQLVESGGGLVQAGGSLRLSCAASGRIFTSYAMGWYRQAPGKERELVAAISSGGSTYYADSVKGRFTISRDNAKNTVYLQMNSLKPEDTAVYYCNAQSTRRYYYYWGQGTQVTVSS | high polyreactivity
36 | QVQLVESGGGLVQAGGSLRLSCAASGIIFDGYAMGWYRQAPGKEREFVAGITWSGGSTYYADSVKGRFTISRDNAKNTVYLQMNSLKPEDTSVYYCAAKYYWYYSYSGIPLFDYWGQGTQVTVSS | low polyreactivity
37 | QVQLVESGGGLVQAGGSLRLSCAASGSTFPTKAMGWYRQAPGKERELVATITTRRSTYYADSVKGRFTISRDNAKNTVYLQMNSLKPEDTAVYYCNAEYVYLIFSVYLYDYDYWGQGTQVTVSS | low polyreactivity
38 | QVQLVESGGGLVQAGGSLRLSCAASGRTFRYYAMGWYRPAPGKERELVAAITSGGTSTYYADSVKGRFTISRDNAKNTVYLQMYSLKPEDTAVYYCAAGRRSYSFHNVVRGYDYWGQGTQVTVSS | high polyreactivity
39 | QVQLVESGGGLVQAGGSLRLSCAASGRTFTYNVMGWYRQAPGKERELVAAITSGGSTYYADSVKGRFTISRDNAKNTVYLQMNSLKPEDTAVYYGAARGYSYKWDNRYDYWGQGTQVTVSS | high polyreactivity
40 | QVQLVESGGGLVQAGGSLRLSCAASGFTFAGNAMGWYRPAPGKERELVAAISRRGGSTYYADSVKGRFTISRDNAKNTVYLQMNSLKPEDTAVYYCAAVYPYDYDYWGQGTQVTVSS | high polyreactivity
41 | QVQLVESGGGLVQAGGSLRLSCAASGGIFLVYAMGWYRQAPGKERELVAAITPGGSTYYADSVKGRFTISRDNAKNTVYLQMNSLKPEDTAVYYCAKALYRREYSSGGYYRFDYWGQGTQVTVSS | high polyreactivity
42 | QVQLVESGGCLVQAGGSLRLSCAASGRTLHYYAMGWYIPAPGKVRELVARINWSGGSTYYADSVKGRFTISRDNAKKTVYLQMNSLKPEDTAVYYCAARKNRAYGYWGQGTQVTVSS | high polyreactivity
43 | QVQLVESGGGLVQARGILRLSCAASGIIFYTYAMGLYRQAPGKERELVAAITARTANTYYADSVKGRFTISRDNAKNTVYLQMNSLKPEDTAVYYCAAAIYSYRTPYYYWGQGTQVTVSS | high polyreactivity
